From patent US20230012273A1 (Boehringer Ingelheim, published 2023)

T1: full-length human SIRPγ EN→DD on Expi-CHO cells (human, UniProt Q9P1W8 29-387)
T1 construct: the entry already carries the change (PENV to PDDV)
T1 chain: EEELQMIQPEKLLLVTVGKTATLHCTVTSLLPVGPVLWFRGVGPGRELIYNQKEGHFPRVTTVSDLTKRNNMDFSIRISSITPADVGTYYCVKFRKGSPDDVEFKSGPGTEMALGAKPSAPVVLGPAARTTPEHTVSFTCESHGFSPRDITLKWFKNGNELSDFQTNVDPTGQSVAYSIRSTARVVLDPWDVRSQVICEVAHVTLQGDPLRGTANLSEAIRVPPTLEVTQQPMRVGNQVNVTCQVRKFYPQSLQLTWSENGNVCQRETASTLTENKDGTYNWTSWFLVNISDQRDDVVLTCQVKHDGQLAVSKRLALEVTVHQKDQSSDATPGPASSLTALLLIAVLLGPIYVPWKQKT

T2: full-length cynomolgus SIRPα (EGM-02252) on CHO cells, clone H3A9 (cynomolgus monkey, UniProt A0A2K5VYQ9)
T2 construct: whole, on cells; also called EGM-02252 Clone H3A9
T2 sequence: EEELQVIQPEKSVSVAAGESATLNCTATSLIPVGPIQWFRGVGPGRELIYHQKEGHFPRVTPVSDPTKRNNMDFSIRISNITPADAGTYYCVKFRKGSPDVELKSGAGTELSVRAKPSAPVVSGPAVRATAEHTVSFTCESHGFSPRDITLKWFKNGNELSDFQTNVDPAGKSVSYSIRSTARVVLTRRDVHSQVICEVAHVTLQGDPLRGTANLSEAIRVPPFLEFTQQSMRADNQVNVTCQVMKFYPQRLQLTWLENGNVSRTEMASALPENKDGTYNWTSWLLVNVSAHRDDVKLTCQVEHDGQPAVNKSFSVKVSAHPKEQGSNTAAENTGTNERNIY

T3: full-length cynomolgus SIRPα (NP_001271679) on CHO cells, clone HC6 (cynomolgus monkey, UniProt A0A2K5VYQ9)
T3 construct: whole, on cells; also called NP_001271679 Clone HC6
T3 sequence: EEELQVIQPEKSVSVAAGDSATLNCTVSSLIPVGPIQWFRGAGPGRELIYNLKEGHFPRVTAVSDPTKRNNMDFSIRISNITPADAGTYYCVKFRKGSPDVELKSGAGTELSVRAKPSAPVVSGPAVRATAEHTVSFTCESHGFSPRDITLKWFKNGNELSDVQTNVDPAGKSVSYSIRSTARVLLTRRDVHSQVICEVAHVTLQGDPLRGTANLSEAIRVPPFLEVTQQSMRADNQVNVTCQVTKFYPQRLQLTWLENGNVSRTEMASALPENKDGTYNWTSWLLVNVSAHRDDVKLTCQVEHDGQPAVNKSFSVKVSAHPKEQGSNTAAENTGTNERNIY


Key:
[1] = biological target: T4, full-length human SIRPαV1 (NP_542970.1) on cells (human, UniProt P78324 31-504); experiment: flow cytometry, CHO-K1 cells
T4 construct: one molecule for CHO-K1 and Expi-CHO transfectants (NP_542970.1) and for endogenous V1 on U-937 cells and on CD14+ monocytes of V1/V1 donors; also called CHO-hSIRPαV1; αV1 WT
Method: (§1) Antibody binding to cells expressing SIRPα is evaluated by flow cytometry. CHO-K1 parental cells (negative control), CHO-K1 cells expressing full-length human SIRPαV1 (NP_542970.1) or CHO-K1 cells expressing full-length human SIRPαV2 (CAA71403.1) are blocked with donkey IgG and incubated on ice with increasing concentrations of antibodies for 60 minutes, washed and stained with AF647-conjugated donkey F(ab′)₂ anti-human IgG secondary reagent. Cells are washed, fixed, and analyzed by flow cytometry. Median fluorescent intensity is determined and used as a measure of antibody binding.

[2] = biological target: T5, full-length human SIRPαV2 (CAA71403.1) on cells (human, UniProt P78324 31-504); experiment: flow cytometry, CHO-K1 cells
T5 construct: one molecule for CHO-K1 and Expi-CHO transfectants (CAA71403.1) and for endogenous V2 on THP-1 cells and on CD14+ monocytes of V2/V2 donors; also called CHO-hSIRPαV2; αV2 WT
Method: as §1

[3] = biological target: T1, full-length human SIRPγ EN→DD on …; experiment: flow cytometry, Expi-CHO cells
Method: Expi-CHO parental cells are transduced with lentiviruses containing either full-length wild-type human SIRPγ ([…]) or full-length human SIRPγ with amino acid point mutations (Table 64) and sorted to achieve matching expression levels. These cells are blocked with donkey IgG and incubated on ice with increasing concentrations of antibodies for 60 minutes, washed and stained with AF647-conjugated donkey F(ab′)₂ anti-human IgG antibodies. Stained cells are washed, fixed, and analyzed by flow cytometry. Median fluorescent intensity is determined and used as a measure of antibody binding.

[4] = biological target: T6, full-length human SIRPβ1 (NP_006056.2) on cells (human, UniProt O00241 30-398); experiment: flow cytometry, U937 SIRPα-KO transfectants
T6 construct: also called β1 WT
Method: (§2) Antibody binding to cells expressing full-length human SIRPβ1 (NP_006056.2) and SIRPβL (NP_001129316.1) is evaluated by flow cytometry. SIRPβ1- or SIRPβL-expressing U937^{SIRPα KO} cells are blocked with donkey IgG and incubated on ice with increasing concentrations of antibodies for 60 minutes, washed and stained with AF647-conjugated donkey F(ab′)₂ anti-human IgG secondary reagent. Cells are washed, fixed, and analyzed by flow cytometry. Median fluorescent intensity is determined and used as a measure of antibody binding.

[5] = biological target: T7, full-length human SIRPβL (NP_001129316.1) on cells (human, UniProt Q5TFQ8 30-398); experiment: flow cytometry, U937 SIRPα-KO transfectants
T7 construct: one molecule for U937 SIRPα-KO transfectants (NP_001129316.1) and Expi-CHO transfectants (Q5TFQ8); also called SIRPβ1v3; βL WT
Method: as §2

[6] = biological target: T2, full-length cynomolgus SIRPα …; experiment: flow cytometry, CHO cells
Method: (§3) Antibody binding to cells expressing cynomolgus (cyno) SIRPα was evaluated by flow cytometry. CHO-K1 cells expressing full-length cyno SIRPα; derived from protein sequence accession numbers (A) EGM-02252; (B) XP_015313155; or (C) NP_001271679, are blocked with donkey IgG and incubated on ice with increasing concentrations of antibodies for 60 minutes, washed and stained with AF647-conjugated donkey F(ab′)₂ anti-human IgG secondary reagent. Cells are washed, fixed, and analyzed by flow cytometry. Median fluorescent intensity is determined and used as a measure of antibody binding.

[7] = biological target: T3, full-length cynomolgus SIRPα …; experiment: flow cytometry, CHO cells
Method: as §3

T7 sequence (Q5TFQ8 30-398): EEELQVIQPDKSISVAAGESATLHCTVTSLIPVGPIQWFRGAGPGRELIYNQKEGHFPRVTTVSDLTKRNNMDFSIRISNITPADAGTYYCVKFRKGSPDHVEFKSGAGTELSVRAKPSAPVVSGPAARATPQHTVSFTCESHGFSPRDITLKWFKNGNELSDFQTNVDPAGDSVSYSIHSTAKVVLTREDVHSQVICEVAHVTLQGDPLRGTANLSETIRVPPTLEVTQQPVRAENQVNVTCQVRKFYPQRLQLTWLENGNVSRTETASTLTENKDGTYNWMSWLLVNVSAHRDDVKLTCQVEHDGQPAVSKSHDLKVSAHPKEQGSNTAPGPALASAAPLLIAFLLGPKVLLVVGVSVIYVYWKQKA
T5 sequence (P78324 other isoform, or with tags, fused parts or gaps): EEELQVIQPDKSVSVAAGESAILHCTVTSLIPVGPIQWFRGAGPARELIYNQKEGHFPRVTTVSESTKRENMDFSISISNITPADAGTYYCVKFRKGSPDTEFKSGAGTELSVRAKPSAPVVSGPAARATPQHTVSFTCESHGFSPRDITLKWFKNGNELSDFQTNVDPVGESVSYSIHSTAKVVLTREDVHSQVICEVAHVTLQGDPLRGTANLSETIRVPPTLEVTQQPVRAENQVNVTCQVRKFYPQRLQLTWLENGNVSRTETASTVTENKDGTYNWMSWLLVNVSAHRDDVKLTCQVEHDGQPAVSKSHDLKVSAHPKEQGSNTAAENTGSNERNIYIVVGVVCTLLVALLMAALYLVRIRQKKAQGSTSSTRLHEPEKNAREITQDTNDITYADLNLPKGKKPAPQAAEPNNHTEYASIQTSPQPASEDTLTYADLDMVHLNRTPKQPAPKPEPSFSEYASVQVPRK
T4 sequence (P78324 31-504): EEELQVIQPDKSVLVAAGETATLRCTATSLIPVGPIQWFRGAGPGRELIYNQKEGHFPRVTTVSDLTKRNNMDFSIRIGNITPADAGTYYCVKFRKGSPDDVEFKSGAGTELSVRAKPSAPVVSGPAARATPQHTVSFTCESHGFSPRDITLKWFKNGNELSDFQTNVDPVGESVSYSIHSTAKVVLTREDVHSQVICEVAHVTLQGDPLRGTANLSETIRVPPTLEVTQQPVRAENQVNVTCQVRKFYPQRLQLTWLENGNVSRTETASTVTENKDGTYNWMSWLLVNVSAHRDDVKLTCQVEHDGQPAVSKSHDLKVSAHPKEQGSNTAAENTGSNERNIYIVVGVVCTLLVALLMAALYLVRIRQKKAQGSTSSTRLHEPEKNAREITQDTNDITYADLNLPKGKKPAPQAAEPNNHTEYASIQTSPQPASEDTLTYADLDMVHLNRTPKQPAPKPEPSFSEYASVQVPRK
T6 sequence (O00241 30-398): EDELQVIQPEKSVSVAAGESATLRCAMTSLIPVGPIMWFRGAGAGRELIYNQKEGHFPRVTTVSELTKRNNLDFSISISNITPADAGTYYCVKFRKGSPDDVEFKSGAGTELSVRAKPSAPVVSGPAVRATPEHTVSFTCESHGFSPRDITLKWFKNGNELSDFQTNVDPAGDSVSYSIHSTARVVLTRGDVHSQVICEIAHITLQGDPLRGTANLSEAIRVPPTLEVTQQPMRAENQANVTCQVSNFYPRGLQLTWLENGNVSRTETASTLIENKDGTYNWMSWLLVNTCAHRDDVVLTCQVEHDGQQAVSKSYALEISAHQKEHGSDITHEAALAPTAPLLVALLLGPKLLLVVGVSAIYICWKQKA

Row | Binder | EC50 [1] | EC50 [2] | EC50 [3] | EC50 [4] | EC50 [5] | EC50 [6] | EC50 [7]
1 | Antibody E (antibody, human IgG1, kappa, L234A L235A) heavy: not shown light: DIVMTQSPLSLPVTPGEPASISCKSSQSLLYSNGYNYLDWYLQRPGQSPQLLIYLGSNRASGVPDRFSGSGSGTDFTLKISRVEAEDVGVFYCMQALQTPLTFGGGTKVEIKRTVAAPSVFIFPPSDEQLKSGTASVVCLLNNFYPREAKVQWKVDNALQSGNSQESVTEQDSKDSTYSLSSTLTLSKADYEKHKVYACEVTHQGLSSPVTKSFNRGEC | 2 nM | 0.9 nM | – | – | 0.3 nM | – | –
2 | Antibody E22 (antibody, human IgG1, kappa, L234A L235A, V domains shown) VH: QVQLQESGPGLVKPSETLSLTCTVSGGSIRDYYWSWIRQPPGKGLEWIGFIYYNGRTFYQSSLKSRVTISLDTSKNQFSLKMTSVTAADTAVYYCARVRAYSGIGLDGTDVWGQGTTVTVSS VL: DIVMTQSPLSLPVTPGEPASISCRSSQSLLYSTGYTYLDWYLQRPGQSPQLLIYGGSSRASGVPDRFSGSGSGTDFTLKISRVEAEDVGVFYCGQALQTPLTFGQGTKVEIKR | – | – | – | – | 0.6 nM | – | –
3 | Antibody A (antibody, human IgG1, kappa, L234A L235A) heavy: not shown light: DIQMTQSPSSLSASVGDRVTITCRASQDINNYLAWFQQKPGKAPKSLIYTASSLHSGVPSKFSGSGSGTDFTLTISSLQPEDFATYYCQQYVSYPYTFGQGTKLEIKRTVAAPSVFIFPPSDEQLKSGTASVVCLLNNFYPREAKVQWKVDNALQSGNSQESVTEQDSKDSTYSLSSTLTLSKADYEKHKVYACEVTHQGLSSPVTKSFNRGEC | – | – | 0.6 nM | 0.2 nM | – | 1.9 nM | 4.5 nM
4 | Antibody A10 (antibody, human IgG1, kappa, L234A L235A) heavy: not shown light: DIQMTQSPSSLSASVGDRVTITCRASQDINNYLAWFQQKPGKAPKSLIYTASSLHSGVPSKFSGSGSGTDFTLTISSLQPEDFATYYCQQYVSYPYTFGQGTKLEIKRTVAAPSVFIFPPSDEQLKSGTASVVCLLNNFYPREAKVQWKVDNALQSGNSQESVTEQDSKDSTYSLSSTLTLSKADYEKHKVYACEVTHQGLSSPVTKSFNRGEC | – | – | 0.7 nM | 0.2 nM | – | 1.5 nM | 3.7 nM
5 | Antibody B (antibody, human IgG1, kappa, L234A L235A, V domains shown) VH: QVQLVQSGAEVKKPGASVKVSCKASGYTFTGNYMHWVRQAPGQGLEWMGWINPNSGGTNYAQKFQGRVTMTRDTSISTAYMELSRLRSDDTAVYYCVSGSGWYENYYYYGMDVWGQGTTVTVSS VL: DIQMTQSPSSVSASVGDRVTITCRASQGISSWLAWYQQKPGKAPKLLIYAESSLQSGVPSRFSGSGSGTDFTLTISSLQPEDFATYYCQQANSFPLTFGGGTKVEIKR | 12 nM | 14.2 nM | 5.3 nM | – | – | – | –

The remaining lines, values ahead:

Row | EC50 [1] | EC50 [2] | EC50 [3] | EC50 [4] | EC50 [5] | EC50 [6] | EC50 [7] | Binder
6 | 0.7 nM | 0.5 nM | 0.3 nM | 0.4 nM | – | – | – | Antibody D (antibody, human IgG1, kappa, L234A L235A, V domains shown) VH: EVQLVESGGGLVQPGGSLRLSCAASGFTFSSFDMHWVRQPTGKGLEWVSTIGIAGDTYFPGSVKGRFTISRENAKNSLYLQMNSLRAGDTAVYYCARGGNWDDALDIWGQGTMVTVSS VL: DIQMTQSPSSLSASVGDRVTITCRASQDINNYLAWFQQKPGKAPKSLIYTASSLQSGVPSKFSGSGSGTDFTLTISSLQPEDFATYYCQQYNTYPYTFGQGTKLEIKR
7 | 1 nM | 0.5 nM | – | 0.5 nM | – | – | – | Antibody C (antibody, human IgG1, kappa, L234A L235A, V domains shown) VH: EVQLVESGGGLVQPGGSLRLSCAASGFTFSSYDMHWVRQATGKGLEWVSVIGIAGDTYYPGSVKGRFTISRENAKNSLYLQMNSLRVGDTAVYYCARGGSWDDAFDIWGQGTMVTVSS VL: DIQMTQSPSSLSASIGDKVTITCRASQDINNYLAWFQQKPGKAPKSLIYTASSLQSGVPSKFSGSGSGTDFTLTISSLQPEDFATYYCQQYVSYPYTFGQGTKLEIKR
8 | 1 nM | 0.5 nM | 0.3 nM | 0.2 nM | 0.2 nM | 0.9 nM | 2 nM | Anti-SIRPα antibody KWAR23 (antibody, V domains shown) VH: EVQLQQSGAELVKPGASVKLSCTASGFNIKDYYIHWVQQRTEQGLEWIGRIDPEDGETKYAPKFQDKATITADTSSNTAYLHLSSLTSEDTAVYYCARWGAYWGQGTLVTVSS VL: QIVLTQSPAIMSASPGEKVTLTCSASSSVSSSYLYWYQQKPGSSPKLWIYSTSNLASGVPARFSGSGSGTSYSLTISSMEAEDAASYFCHQWSSYPRTFGAGTKLELK
